Patent US20200157212A1

Molecular target: Terbium (Tb) labeled-SNAP tagged ROBO2 expressed on HEK293 cells (Homo sapiens (Human)) (UniProt Q9HCK4)
Assay: HTRF competition, competitor d2-SLIT2-N, ROBO2 HEK293 cells

Chain of Terbium (Tb) labeled-SNAP tagged ROBO2 expressed on HEK293 cells (Homo sapiens (Human)) (Q9HCK4 22-1378): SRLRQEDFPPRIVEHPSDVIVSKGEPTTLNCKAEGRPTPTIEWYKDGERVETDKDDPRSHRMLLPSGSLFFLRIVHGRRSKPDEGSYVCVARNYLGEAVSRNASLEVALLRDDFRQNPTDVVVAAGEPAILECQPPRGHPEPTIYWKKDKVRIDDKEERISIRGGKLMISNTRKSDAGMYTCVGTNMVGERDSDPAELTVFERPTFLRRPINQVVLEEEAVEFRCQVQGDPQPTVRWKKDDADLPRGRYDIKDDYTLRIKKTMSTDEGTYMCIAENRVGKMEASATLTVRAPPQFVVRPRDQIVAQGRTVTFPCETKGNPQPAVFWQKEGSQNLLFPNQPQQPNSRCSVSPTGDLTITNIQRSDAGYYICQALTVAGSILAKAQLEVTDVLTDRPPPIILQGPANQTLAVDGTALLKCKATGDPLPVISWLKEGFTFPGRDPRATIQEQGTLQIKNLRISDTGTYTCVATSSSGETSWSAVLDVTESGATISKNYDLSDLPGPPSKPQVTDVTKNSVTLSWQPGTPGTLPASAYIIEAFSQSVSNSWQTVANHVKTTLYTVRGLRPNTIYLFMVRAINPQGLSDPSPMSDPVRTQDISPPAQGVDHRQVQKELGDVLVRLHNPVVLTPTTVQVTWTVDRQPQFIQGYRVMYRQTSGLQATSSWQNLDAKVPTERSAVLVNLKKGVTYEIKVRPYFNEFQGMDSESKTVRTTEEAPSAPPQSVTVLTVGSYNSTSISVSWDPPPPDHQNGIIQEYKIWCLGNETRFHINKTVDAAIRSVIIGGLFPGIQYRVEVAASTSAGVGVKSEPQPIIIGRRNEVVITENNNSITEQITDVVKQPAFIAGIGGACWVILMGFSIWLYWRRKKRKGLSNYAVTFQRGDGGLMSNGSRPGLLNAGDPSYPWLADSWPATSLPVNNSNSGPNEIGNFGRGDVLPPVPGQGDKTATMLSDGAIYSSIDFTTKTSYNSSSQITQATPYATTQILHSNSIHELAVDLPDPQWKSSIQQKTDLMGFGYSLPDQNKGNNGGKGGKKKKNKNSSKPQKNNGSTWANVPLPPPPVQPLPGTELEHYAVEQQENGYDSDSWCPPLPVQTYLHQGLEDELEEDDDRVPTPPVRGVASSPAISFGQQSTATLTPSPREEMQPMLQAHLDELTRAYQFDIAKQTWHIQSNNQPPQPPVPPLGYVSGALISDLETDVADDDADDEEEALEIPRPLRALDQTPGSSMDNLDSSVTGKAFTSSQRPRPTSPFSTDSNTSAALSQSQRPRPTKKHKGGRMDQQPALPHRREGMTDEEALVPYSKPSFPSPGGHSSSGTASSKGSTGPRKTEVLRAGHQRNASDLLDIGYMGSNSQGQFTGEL

## Control Ab (antibody)
  IC50: 125 nM
